From the nanobody polyreactivity screen of Harvey et al. (2022) come the findings set out here.

The nature of this data set: yeast display, Sf9 membrane polyspecificity reagent, FACS + sequencing; frameworks hold sequencing errors. Summed up: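 Nanobodies came from a synthetic yeast display library in Saccharomyces cerevisiae BJ5465, induced with galactose for 36–48 hours and stained for 1 hour at 4 °C with 10% biotinylated, detergent-solubilized Sf9 membrane reagent. Cells were enriched on streptavidin microbeads and then FACS-sorted, with low and high (top ~1%) gates set on anti-HA fluorescence for expression and streptavidin fluorescence for reagent binding. Each polyreactivity label reflects the gate a clone came from. Genes were amplified by colony PCR, sequenced by MiSeq 2 × 250 and filtered by CDR length.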
On to “QVQLVESGGGLVQAGGSLRLSCAASGIIFSRYAMGWYRQAPGKERELVAVISSSGGRTYYADSVKGRFTISRDNAKNTVYLQMNSLKPEDTAVYYCAAYTRTGSHLRAYYYWGQGTQVTVSS”, for which the “polyreactivity (PSR sort gate)” value is “high polyreactivity”. The result for “QVQLVESGGGLVQAGGSLRLSCAASGSTFYLNAMGWYRQAPGKERELVAAITVSGGSTYYADSVKGRFTISRDNAKNTVYLQMNSLKPEDTAVYYCARELLSPTYQRWYYYWGQGTQVTVSS” reads “low polyreactivity”; that for “QVQLVESGGGLVQAGVSLRLSCPAGGSTFYKYVMGWYRQAPGKEREVVAAISVNGGDTYYADSVKGRFTISRDNAKNTVSVQMNSLNPEDTAVYYCAAERGVDLSARYGDNDNWGQGTQVTVTS”, “low polyreactivity”; that for “QVQLVESGGGLVQAGGSLRLSCAASGSTIYSYAMGWYRQAPGKERELVAAISWSGARTYYADSVKGRFTISRDIAKNTVYLQMNSLKPEDTAVYYCAASGYYSSHMDYWGQGTQVTVSS”, “high polyreactivity”. Turning to “QVQLLESGGGLVQAGGSLRLSCMASGSILADRISWYRQAPRIEHELVATLYDGGITYYADSMKGRFTMSRDNAKNTVYLQMNSLRPEDTAVYYCGASFEGYRYHVYCGQGTQVTVSS”, the “polyreactivity (PSR sort gate)” value is “low polyreactivity”. The result for “QVQLVESGGGLVQAGGSLLLSCAASGLIFSGYAMGWYRQAPGKERELVAAISRTVGTTYYADSVKGRFTISRDNGKNPVYLQMNSLKPEDTAVYYCAARGRATLYDYWGQGTQVTVSS” reads “high polyreactivity”; that for “QDQLVESGGGLVQAGGSLRLSCAASGNIIVEKAMGWYRQAPGTERELVAVSTSGTSTYADSVKGRFTISRDNAKNTVYLQMYSLKPEDTAVYYCNKRQVFVSTGEYEFDYWGQGTQVTVSS”, “low polyreactivity”. The result for “QVQLVESGGGLVQAGGSLRLSCAASGITFNRYVMGWYRQAPGKERELVAANSRTGGSTYYADSVKGRFTISRDTGKNTVYLQMNILKPEDTAVYYCAAATSPGIYDYWGQGTQVTVSS” reads “high polyreactivity”; that for “QVQLVESGGGLVQAGGSLRLSCAASGSIFWLYAMGWYRQATGKERELVAAINWTGGSTNYADSVKGRFTISRDNAKNTVYLQMNSLKPEDTAVYFCAAEGVPDALDRVYWGQGTQVTVSS”, “low polyreactivity”; that for “QVQLVESGGGLVQAGGSLRLSCDASGFTFYRYAMGWYRQAPGKERELVAAISSSGSSTYYADSVKGRFTISRDNAKNTVYLQMNSLKPEDTAVYYCAKRLGGSRPYYYWGQGTQVTVSS”, “high polyreactivity”.

“QDQLGESGGGLVQAGGSLRLSCAASGSIFETYVMGWYRQAPGKERELVAAINSGGSTNYADSVKGRFTISRDNAKNTVYLQMNSLKAEDTAVYYCNADWFTPAQPWYRYFIRYDYWGQGTQVTVSS”: the “polyreactivity (PSR sort gate)” value was “low polyreactivity”. To “QVQLVESGGGLVQAGGSLRLSCAPSRFIFGHYAMGWYRQAPGKERELVAGINSSGGSTHYADSVKGRFTISRDNAKNTVYLQMNSLKPEDTAVYYCAADVYRFYAGSRYYYWGQGTQVTVSS” belongs “low polyreactivity”. The result for “QVQLVESGGGLVQAGGSLRLSCAASGSTFRINAMGWYRQAPGKERELVADINSGGNTTYADSVKGRFTISRDNAKNTVYLQMNSLKPEDTAVYYCNAPYSFFWQQMNYWGQGTQVTVSS” reads “low polyreactivity”.

For “QVQLVESGGGLVQAGGSLRLSCAASGRIFVTYAMGWYRQAPGKERELVAVISWSGGSTYYADSVKGRFTISRDNAKNTVYLQMNSLKPEDTAVYYCARGLRKVRFDYWGQGTQVTVSS”, the “polyreactivity (PSR sort gate)” value is listed as “low polyreactivity”.

Consider “QVQLVESGGGLVQAGGSLRLSCAASGFIFLPYVMGWYRQAPGKERELVAAISGGGGITYYADSVKGRFTISRDNAKNTVYLQMNSLKPEDTAVYYCAADDLHWLNSKRYSGRDYWGQGTQVTVSS”, for which the “polyreactivity (PSR sort gate)” value is reported as “low polyreactivity”. To “QVQLVESGGGLVQAGGSLRLSCAASGFTFAAYAMGWYRPAPGKERELVAAITSRDGTTYYADSVKGRFTISRNNAKNTVYLQMNSLKPEDTAVYYGAKDHFTWGVSEDDYWRQGTQVTVSS” belongs “low polyreactivity”. The result for “QVQLVESGGGLVQAGGSLRLSCAASGRIFRGYAMGWYRQAPGKEREFVADITRSGGSTYYADSVKGRFTISRDNAKNTVYLQMNSLKPEDTAVYYCAREWYQYSPYHRFDYWGQGTQVTVSS” reads “high polyreactivity”. The result for “QVQLVESGGGLVQAGGSLRLSCAASGLIFTPYAMGWYRQAPGKERELVAAISVSGGRTYYADSVKGRFTISRDNAKNTVYLQMNSLKPEDTAVYYCAASDRYGGRDYWGQGTQVTVSS” reads “high polyreactivity”; that for “QVQLVESGGGLVQAGGSLRLSCAASGTFPDYAMGWYRQAPGKERELVAAITYRGGSTYYADSVKGRFTISRDNAKNTVYLQMNSLKPEDTAVYYCAADVVNAYKSLLVGDMYYWGQGTQVTVSS”, “high polyreactivity”; that for “QVQLVESGGGLVQAGGSLRLSCAASGSTFWGNAMGWYRQAPGKERELVAAISTSDTSTYYADSVKGRFTISRDNAKNTVYLQMNSLKPEDTAVYYCAAEWYYGEKYDYWVQGTQVTVSS”, “low polyreactivity”. For the sequence “QVQLVESGGGLVQAGGSLRLSCAASGIIFYRYAMGWYRQAPGKERELVAAISSSGTNTYYADSVKGRFTISRDNAKNTVYLQMNSLKPEDTAVYYCNSDTWADRSTYDYWGQGTQVTVSS”, the “polyreactivity (PSR sort gate)” value is reported as “low polyreactivity”. For the sequence “QDQLVESGGGLVQAGGSLRLSCAASARIFERYAKGWYRPPPGKEMELVAAISYRGGRTYYADSVKGRFTISRVNAKNTVYLQMNSLKPEDTAVYYCAAYTYFRDWAEYDYWGQGTQVTVSS”, the “polyreactivity (PSR sort gate)” value was “high polyreactivity”. The result for “QVQLVESGGGLVQAGGSLRLSCAASGFTFGFYAMGWYIQAPGNERELVASITTRGGSTRYADSVKGRFTISRDNAKNTVYLQMNSLKPEDTAVYYCAAQYSYVRYLKRGYGYWGQGTQVTVSS” reads “high polyreactivity”; that for “QVQLVESGGGLVQAGGSLRLSCAASGFIFDQYAMGWYRQAPGKERELVATITSDGDTYYADSVKGRFTISRDNAKNTVYLHMISLKPEDSAVYYCAVEPGPYTTGYDYWGQGTQVTVSS”, “low polyreactivity”. The result for “QVQLVESGGGLVQAGGSLRLSCAASGSIFPHNAMGWYRPAPGKERELVAAISSGGSTNYADSVKGRFTISRDNANNTVYLQLNSLKPEDTAVYYCAKSIDGWYWRRRRYDYWGQGTQVTVSS” reads “low polyreactivity”; that for “QVQLEESGGGLVQAGGSLRLSCAASGFIFPYYAMGWYRQAHGQERELVAAISRSGGRTYYADSVKGRFTISRDNAKNTVYLQMNSLKPEDTAVYYCNAPFQSEPFDYWGQGTQVTVSS”, “high polyreactivity”.

Consider “QVQLVESGGGLVQAGGSLRLSCAATGGTFTFYAMGWYRQAPGKERELVATINWSGGSTYYADSVKGRFTISRDNAKITVYLQMNSLKPEDTAVYYCNAAWPYKSVEYWGQGTQVTVSS”, for which the “polyreactivity (PSR sort gate)” value is given as “low polyreactivity”.

Turning to “QVQLVESCGGLVQAGGSLSLSCAASGRILYYYAMGWYRQAPGKERELVAAITSGGSTYADSVKGRFTISRDNAKNTVYLQMNSLKPEDTAVYYCNADYTVYDTEYDYWGQGTQVTVSS”, the “polyreactivity (PSR sort gate)” value is on record as “low polyreactivity”. As to “QFQLVESGGGLVQAGGSLRLSCAASGIIFAQYTMGWYRQAPGKDRELGAAINRNGGSTYYADSVKGRFTISRDNAKNTVYLQMNSLKPEDTAVYYCIADALGFRYDYWGQGTQVTVSS”, the “polyreactivity (PSR sort gate)” value is reported as “low polyreactivity”.

Take “QVQLVESGGGLVQAGGSLRLICAASGFIFGHYAMGWYRQAPGNERELVAAISTGGDGTYYADSVKGRFTISRDNAKNTVYLQMNSLKPEDTAVYYCAVRHRASGILYYYWGQATQVTVSS”: the “polyreactivity (PSR sort gate)” value is “low polyreactivity”. In the case of “QVQLVESGGGLVQAGGSLRLSCAASGRTFKWYAMGWYRQAPGKERELVAGISRGAGRTYYADSVKWRFTISRDNAKNTFYLEMNSLKPEDTAVYYFAASPVRDGKVIDGRDYWGQGTQVTVSS”, the “polyreactivity (PSR sort gate)” value is reported as “high polyreactivity”. The result for “QVQLVESGGGLVQAGGSLRLSCAASGSTFSVNAMGWYRQAPGKEREFVAAITGDGVTTYYADSVKGRFTISRDNAKNTVYLQMNSLKPEDTAVYYCAAEDIRQTTGYDYWGQGTQVTVSS” reads “high polyreactivity”; that for “QVQHVESGGGLVQAGGSLRLSCAASGRTFFENAMGWYRQAPGKEMELVAAISWDGGTTYADSVKGRFSISRDNAKNTVYLQMNSLKPEDTAVYYCNAEVRSNDARGDNDYCGQGTQVTVSS”, “low polyreactivity”; that for “QVQLVDSGGGLVQAGGSLRLSCAASGRTFYYNTMGWYRQAPGKERELVAAITYRGGRTYYADSVKGRFTISRDNAKNTVYLQMNSLKPEDTAVYYCAADWRGPGRTYKINKYDYWGQGTQVTVSS”, “high polyreactivity”. The result for “QVQLVESGGGLVQAGGSLRLSCAASGTFPGNAMGWYRQPPGKERELVATITRGGRTYYADSVKGRVTISRDNANNTVYLQMNSLKPEDTAVYYCNTSVYSGKIRGYDYGGQGTQVTVSS” reads “high polyreactivity”; that for “QVQVVESGGGLVQAGGSLRLSCAASGITFFLNAMGWYRQAPGKERELVAAISSGAGTTYADSVKGRFTISRDNAKNTFFLQMKSLKPEDTAVYYCAAAGDYVVPISSTAGFGGDYWGQGTQVTVSS”, “low polyreactivity”; that for “QVQLVESGGGLVHAGGSLRLSCAASGGNFGKYAMGGYRQAPGKERELVAAITWNGGRTYYADSVKGRFTLSRDNAKNTVYLQMNSLKPEDSAVNYCNARNSHRYVYWGQGTQVTVSS”, “high polyreactivity”.

Turning to “QVQLVESGGGLVQAGGSLRLSCAASGRIFAGYPMGWYRQAPGKERELVATITRGGSTNYADSVKRPFTISRDNAKYTVYLQMNSLKPEDTAVYYCNADPGGRYPRRGYAHEGDYWGQGTQVTVSS”, the “polyreactivity (PSR sort gate)” value is “low polyreactivity”. To “QVQLVESGGGVDQAGGSLRLSCAACGSTIPYYAMGWYRQAPGKERELVAAISASTGSTNYADSVKGRFTISRDNAKNTVYLQMNSLKPEDTAVYYCAKKRSKIKRFGYWGHGTQVTVSS” belongs “high polyreactivity”; to “QVQLVESGGGLVQAGCSLRLSCAASGSTFRPYAMGWYRQAPGKERELVAAINNSGGSTYYADSVKGRFTISRDNAKNTVYLQMNSLKPEDTAVYYCAAEWYYYFIIMNYWGQGTQVTVSS”, “high polyreactivity”.

For “QVQLVESGGGLVQAGGSLRLSCAASGLIFLAYTMGWYRLAPGKVRELVAAISYSDGSTYYADSVKARFTISRDNANNTVYVQMNSLKPEDTAVYYCAARPRPPLRSYDYWGQGTQVTVSA”, the “polyreactivity (PSR sort gate)” value is “low polyreactivity”.
